Reference: patent US20210032351A1 (XDCEXPLORER SHANGHAI, published 2021)

What was measured:
[1] = target: T1, wild-type EGFR protein on the surfaces of A431 tumor cells and normal human primary hepatocytes (human, UniProt P00533 25-1210); assay: FACS, MFI on A431 cells over MFI on normal primary hepatocytes
T1 construct: whole, on cells; Same protein on two cell types; also called human epidermal growth factor receptor; her-1
Procedure: (§1) The preparation of U87MG-EGFRvIII required for FACS detection is as described in the preparation of the immunogen B in example 1. Normal human primary hepatocytes are purchased from BioreclamationIVT, and A431 tumor cells are purchased from ATCC. The recovered hepatocytes are directly used for FACS detection, and the recovered U87MG-EGFRvIII and A431 cells are subjected to an expanded culture to 90% confluence in a T-75 cell culture flask; the medium is sucked out, and the cells are washed twice with a HBSS buffer (Hanks Balanced Salt Solution) (purchased from Invitrogen), and then treated with an enzyme-free cell dissociation solution (Versene solution: purchased from Life Technology) and collected. The cells are washed twice with the HBSS buffer and are counted, and then the cells are diluted with the HBSS buffer to 2×10⁶ cells/ml, added with 1% goat serum blocking solution, with the percentage being the mass percentage, and incubated on ice for 30 minutes, and then centrifugally washed twice with the HBSS buffer. The collected cells are resuspended to 2×10⁶ cells/mL with an FACS buffer (HBSS+2% FBS, with the percentage being the volume percentage), added to a 96-well FACS reaction plate at 100 μL/well, then added with 100 μL/well of the purified EGFRvIII antibody (samples to be tested) obtained in example 12, and incubated on ice for 2 hours. The plate is centrifugally washed twice with the FACS buffer, added with 100 μL/well of a 1:1000 diluted fluorescence (Alexa 488) labeled secondary antibody (purchased from Invitrogen), and incubated on ice for 1 hour. The plate is centrifugally washed 3 times with the FACS buffer, added with 100 μL/well of a fixing solution [4% (v/v) paraformaldehyde] to resuspend the cells, and centrifugally washed twice with the FACS buffer after 10 minutes. The cells are resuspended in 100 μL of the FACS buffer, and the results are detected and analyzed by FACS (FACS Calibur, purchased from BD). Data analysis is performed by using the software (CellQuest) to obtain the mean fluorescence intensity (MFI) of the cells. Data is further analyzed by using the software (GraphPad Prism5) to perform data fitting and calculate EC50.

[2] = target: T1, wild-type EGFR protein on the surfaces …; assay: FACS, normal human primary hepatocytes
Procedure: as §1

[3] = target: T1, wild-type EGFR protein on the surfaces …; assay: FACS, A431 tumor cells
Procedure: as §1

[4] = target: human EGFRvIII protein on the cell surface (human) (UniProt P00533); assay: FACS on U87MG-EGFRvIII cells
[5] = target: human EGFRvIII-hFc protein (human) (UniProt P00533); assay: ELISA, EGFRvIII-hFc coated
[6] = target: T2, human EGFRvIII-hFc protein (human, UniProt P00533 25-645); assay: ELISA, EGFRvIII-hFc coated
T2 construct: extracellular domain; also called immunogen A; hFc-tagged EGFRvIII protein; not shown: human IgG Fc fragment (hFc) of the pCpC vector
Procedure: The purified humanized anti-EGFRvIII antibody obtained in example 12 is reacted with a human EGFRvIII-hFc protein.
The purified immunogen A (EGFRvIII-hFc) obtained in example 1 (for the preparation method, see step (I) in example 1) is diluted with PBS to a final concentration of 1.0 μg/mL, and then added to a 96-well ELISA plate at 100 μl/well. The plate is sealed with a plastic film and incubated at 4° C. overnight. The next day, the plate is washed twice with a plate washing solution [PBS+0.01% (v/v) Tween20], and added with a blocking solution [PBS+0.01% (v/v) Tween20+1% (w/w) BSA] for blocking 2 hours at room temperature. […] The plate is incubated for 2 hours at 37° C., and then washed 3 times with the plate washing solution [PBS+0.01% (v/v) Tween20]. The plate is added with an HRP (horseradish peroxidase) labeled secondary antibody (purchased from Sigma), incubated at 37° C. for 2 hours, and then washed 3 times with the plate washing solution [PBS+0.01% (v/v) Tween20]. The plate is added with 100 μl of TMB substrate/well, incubated for 30 minutes at room temperature, and then added with 100 μl of stopping solution (1.0N HCl)/well. A450 nm value is read using an ELISA plate reader (SpectraMax 384plus, purchased from Molecular Device).

[7] = target: T3, human EGFRvIII protein on the cell surface (human, UniProt P00533 25-1210); assay: FACS on U87MG-EGFRvIII cells
T3 construct: whole, on cells; the cell line is named under assay; also called hEGFRvIII; U87MG-hEGFRvIII
Procedure: as §1

Binder	Selective window (MFIA431/Hepatocytes) [1] [ratio]	mean fluorescence intensity (MFI) [2] [MFI]	mean fluorescence intensity (MFI) [3] [MFI]	EC50 [4] [nM]	Maximum mean fluorescence intensity [4] [MFI]	EC50 [5] [nM]	Maximum OD450 value [5] [OD450]	also measured
Chimeric antibody c63A10A7 (antibody, human IgG1, V domains shown, also called chimeric antibody 63A10) VH: QVQLQQSGAELARPGASVKMSCKASGYTFISFTMHWVKQRPGQGLEWIGYINPNSGYTKYNQKFKDKATLTAGQSSSTAYMQLSSLTSEDSAVYYCTRGGGRGFAYWGQGTLVTVSA VL: DILMTQSPSSMSVSLGDTVTITCHASQDINSNIGWLQQKPGKSFKALIYHGTNLEDGVPSRFSGSGSGADYSLTISSLESEDFADYYCVQYAQFPFTFGSGTKLEIK	15.8	299	4730					
Humanized antibody h63A10A7-20 (antibody, human IgG1, V domains shown, Human IgG1 constant region, human kappa constant region) VH: QVQLVQSGAEVKKPGASVKVSCKASGYTFISFTMHWVRQAPGQGLEWIGYINPNSGYTKYNQKFKDKATLTRDTSTSTVYMELSSLRSEDTAVYYCTRGGGRGFAYWGQGTLVTVSS VL: DILMTQSPSSLSASVGDRVTITCHASQDINSNIGWLQQKPGKSFKALIYHGTNLEDGVPSRFSGSGSGADYTLTISSLQPEDFATYYCVQYAQFPFTFGQGTKLEIK	15.4	486	7460					
Humanized antibody h63A10A7-18 (antibody, human IgG1, V domains shown, Human IgG1 constant region, human kappa constant region) VH: QVQLVQSGAEVKKPGASVKVSCKASGYTFISFTMHWVKQRPGQGLEWIGYINPNSGYTKYNQKFKDKATLTADQSTSTAYMELSSLRSEDTAVYYCTRGGGRGFAYWGQGTLVTVSS VL: DILMTQSPSSLSASVGDRVTITCHASQDINSNIGWLQQKPGKSFKALIYHGTNLEDGVPSRFSGSGSGADYTLTISSLQPEDFATYYCVQYAQFPFTFGQGTKLEIK	16.5	553	9140					
Humanized antibody h63A10A7-19 (antibody, human IgG1, V domains shown, Human IgG1 constant region, human kappa constant region) VH: QVQLVQSGAEVKKPGASVKVSCKASGYTFISFTMHWVKQRPGQGLEWMGYINPNSGYTKYNQKFKDKATMTRDTSTSTVYMELSSLRSEDTAVYYCTRGGGRGFAYWGQGTLVTVSS VL: DILMTQSPSSLSASVGDRVTITCHASQDINSNIGWLQQKPGKSFKALIYHGTNLEDGVPSRFSGSGSGADYTLTISSLQPEDFATYYCVQYAQFPFTFGQGTKLEIK	8.7	439	3830					
Humanized antibody h63A10A7-17 (antibody, human IgG1, V domains shown, Human IgG1 constant region, human kappa constant region) VH: QVQLVQSGAEVKKPGASVKVSCKASGYTFISFTMHWVKQRPGQGLEWIGYINPNSGYTKYNQKFKDKATLTRDTSTSTVYMELSSLRSEDTAVYYCTRGGGRGFAYWGQGTLVTVSS VL: DILMTQSPSSLSASVGDRVTITCHASQDINSNIGWLQQKPGKSFKALIYHGTNLEDGVPSRFSGSGSGADYTLTISSLQPEDFATYYCVQYAQFPFTFGQGTKLEIK	15.6	677	10600					
Humanized antibody h75G7C6-3 (antibody, human IgG1, V domains shown) VH: EVQLVQSGAEVKKPGASVKVSCKASGYTFTDYNMDWVKQAPGQGLEWIGDINPNNADTIYNQKFKGRVTLTVDKSTSTVYMELSSLRSEDTAVYYCARGDYDGYYPVYYAMDYWGQGTTVTVSS VL: ENVLTQSPATLSLSPGERATLSCRASSSVSSSYLHWYQQKPGQSPRLLIFSTSNLAAGIPARFSGSGSGTDYTLTISSLEPEDFAVYYCQQYSGYPLTFGGGTKVEIK				5.6	18600	0.51	3.44	
Humanized antibody h75G7C6-4 (antibody, human IgG1, V domains shown) VH: EVQLVQSGAEVKKPGASVKVSCKASGYTFTDYNMDWVKQAPGQGLEWIGDINPNNADTIYNQKFKGRVTLTVDKSTSTVYMELSSLRSEDTAVYYCARGDYDGYYPVYYAMDYWGQGTTVTVSS VL: ENVLTQSPATLSLSPGERATLSCRASSSVSSSYLHWYQQKPGQSPRLLIFSTSNLAAGVPARFSGSGSGTDYTLTISSLEPEDFAVYYCQQYSGYPLTFGGGTKVEIK				5.57	18700	0.45	3.37	
Humanized antibody h75G7C6-6 (antibody, human IgG1, V domains shown) VH: QVQLVQSGAEVKKPGASVKVSCKASGYTFTDYNMDWVRQAPGQGLEWMGDINPNNADTIYNQKFKGRVTMTRDTSTSTVYMELSSLRSEDTAVYYCARGDYDGYYPVYYAMDYWGQGTTVTVSS VL: ENVLTQSPATLSLSPGERATLSCRASSSVSSSYLHWYQQKPGQAPRLLIFSTSNLAAGIPARFSGSGSGTDYTLTISSLEPEDFAVYYCQQYSGYPLTFGGGTKVEIK				5.96	17100	0.68	3.2	
Humanized antibody h75G7C6-8 (antibody, human IgG1, V domains shown) VH: QVQLVQSGAEVKKPGASVKVSCKASGYTFTDYNMDWVRQAPGQGLEWMGDINPNNADTIYNQKFKGRVTMTRDTSTSTVYMELSSLRSEDTAVYYCARGDYDGYYPVYYAMDYWGQGTTVTVSS VL: ENVLTQSPATLSLSPGERATLSCRASSSVSSSYLHWYQQKPGQSPRLLIFSTSNLAAGVPARFSGSGSGTDYTLTISSLEPEDFAVYYCQQYSGYPLTFGGGTKVEIK				11.6	17600	2	2.72	
Humanized antibody h75G7C6-7 (antibody, human IgG1, V domains shown) VH: QVQLVQSGAEVKKPGASVKVSCKASGYTFTDYNMDWVRQAPGQGLEWMGDINPNNADTIYNQKFKGRVTMTRDTSTSTVYMELSSLRSEDTAVYYCARGDYDGYYPVYYAMDYWGQGTTVTVSS VL: ENVLTQSPATLSLSPGERATLSCRASSSVSSSYLHWYQQKPGQSPRLLIFSTSNLAAGIPARFSGSGSGTDYTLTISSLEPEDFAVYYCQQYSGYPLTFGGGTKVEIK				5.74	17200	1.1	2.97	
Humanized antibody h75G7C6-12 (antibody, human IgG1, V domains shown, also called VH-g1/VL-g3) VH: QVQLVQSGAEVKKPGASVKVSCKASGYTFTDYNMDWVRQAPGQGLEWIGDINPNNADTIYNQKFKGRVTLTVDTSTSTVYMELSSLRSEDTAVYYCARGDYDGYYPVYYAMDYWGQGTTVTVSS VL: ENVLTQSPATLSLSPGERATLSCRASSSVSSSYLHWYQQKPGQSPRLLIFSTSNLAAGVPARFSGSGSGTDYTLTISSLEPEDFAVYYCQQYSGYPLTFGGGTKVEIK								EC50 [6]: 0.57 nM; Maximum OD450 value [6]: 2.73 OD450; EC50 [7]: 5.2 nM; Maximum mean fluorescence intensity [7]: 17800 MFI
Humanized antibody h75G7C6-11 (antibody, human IgG1, V domains shown, also called VH-g1/VL-g2) VH: QVQLVQSGAEVKKPGASVKVSCKASGYTFTDYNMDWVRQAPGQGLEWIGDINPNNADTIYNQKFKGRVTLTVDTSTSTVYMELSSLRSEDTAVYYCARGDYDGYYPVYYAMDYWGQGTTVTVSS VL: ENVLTQSPATLSLSPGERATLSCRASSSVSSSYLHWYQQKPGQSPRLLIFSTSNLAAGIPARFSGSGSGTDYTLTISSLEPEDFAVYYCQQYSGYPLTFGGGTKVEIK								EC50 [6]: 0.67 nM; Maximum OD450 value [6]: 2.96 OD450; EC50 [7]: 5.11 nM; Maximum mean fluorescence intensity [7]: 17600 MFI
